Test [1] has as its target HLA class II antigens (HLA-DR, HLA-DQ and HLA-DP). Nature of the test: Luminex, Labscreen Mixed, each of the 5 class II bead types, antibody at 2 µg/ml.
The target is the same in test [2]. Description: Luminex dose/response, average over 5 class II bead types, antibody at 2 × 10^-3 µg/ml.
For test [3] the target is unchanged. Nature of the test: Luminex dose/response, average over 5 class II bead types, antibody at 1.25 × 10^-1 µg/ml.
For test [4] the target is unchanged. Description: Luminex dose/response, average over 5 class II bead types, antibody at 5 × 10^-4 µg/ml.
For test [5] the target is unchanged. Nature of the test: Luminex dose/response, average over 5 class II bead types, antibody at 2 × 10^0 µg/ml.
For test [6] the target is unchanged. Nature of the test: Boltzmann sigmoid fit of the Luminex titration curve; asymptote at infinite concentration.
The target is the same in test [7]. Description: Boltzmann sigmoid fit of the Luminex titration curve; concentration at 50% of the specific signal (MAX-MIN).
For test [8] the target is unchanged. Nature of the test: Luminex dose/response, average over 5 class II bead types, antibody at 7.8 × 10^-3 µg/ml.
Test [9] has the same target. Nature of the test: Luminex dose/response, average over 5 class II bead types, antibody at 3.13 × 10^-2 µg/ml.
For test [10] the target is unchanged. Nature of the test: Boltzmann sigmoid fit of the Luminex titration curve; asymptote as the concentration tends to 0.
For test [11] the target is unchanged. Nature of the test: Luminex dose/response, average over 5 class II bead types, antibody at 5 × 10^-1 µg/ml.

B1: monoclonal chimeric immunoglobulin Hu-IgG1 K [F3.3] (antibody, V domains shown)
VH: EVKLEESGGGLVQPGGSMKLSCVASGFTFSNSWMNWVRQSPEKGLEWVAEIRLKSNNYATRYAESVKGRFTISRDDSKSSVYLQMNNLRSEDTAIYYCTPLSYSFDYWGQGTTVTVST
VL: QIVLTQSPAIMSASPGEKVTMTCSASSIVRYMYWFQQKPGSSPRLLIYDTSSLSSGVPVRFSGSGSGTSYSLTISRMEAEDAATYFCQQWSSYPLTFGGGTKLEIKR
As usually defined, the EC50 is the concentration that produces a half-maximal response. B1 displayed a fluorescence (average fluorescence units) in [1] of 22000. Also, the Average fluorescence intensity (fluorescence intensity) in test [2] was found to be 1090; in [3] it was 18000; in [4], 316; in test [5], 23600; in [8], 3520; in test [9], 9130. Also, the Average fluorescence intensity (fluorescence intensity) in test [11] worked out at 22800. The molecule also came in with an MAX in test [6] of 24600 fluorescence. Also, the EC50 in test [7] was 0.05 µg/mL. The molecule also registered an MIN in test [10] of 88 fluorescence.

The record behind these values is patent US9637538.
